Laboratory results: patent US20040208867A1, “Protein having active sulfate transporter activity and method for detecting canceration of tissue” (NATIONAL INSTITUTE OF ADVANCED INDUSTRIAL SCIENCE AND …, priority 2002, published 2004)

Tests used:
[1] = substrate: Nc1ncnc2c1ncn2[C@@H]1O[C@H](COP(=O)(O)OS(=O)(=O)O)[C@@H](OP(=O)(O)O)[C@H]1O; test: cells, lysate or membranes; conditions: other: transport of PAPS (35S-labeled), P100 fraction, pH 7.5, PAPS concentration varied, FIG. 3, FIG. 4, 37.0 °C
[2] = transport activity of the P100 fraction for labeled nucleotide sugars instead of PAPS; type: biochemical, yeast strain W303a; conditions: labeled nucleotide sugars instead of 35S-labeled PAPS (FIG. 2)
Procedure: Five minutes thereafter, 10 volumes of an ice-cooled reaction terminating solution (20 mM Tris-HCl buffer (pH 7.5) containing 0.25 M sucrose, 5 mM MgCl2 and 150 mM KCl) was added thereto, and the mixture was filtered through a nitrocellulose filter of 0.45 μm in pore size. This filter was washed with 10 ml of the iced-cooled reaction terminating solution, and the radioactivity of this filter was measured using a liquid scintillation counter (FIG. 1). Respective fractions prepared using a transformant of a yeast strain W303a transformed with YER352 GAPII alone were used as negative controls.

B1: human STP3 (GenBank accession No. XM_059770), protein having active sulfate (PAPS) transport activity, SEQ ID NO:2 (Homo sapiens) (protein)
chain: MDARWWAVVVLAAFPSLGAGGETPEAPPESWTQLWFFRFVVNAAGYASFMVPGYLLVQYFRRKNYLETGRGLCFPLVKACVFGNEPKASDEVPLAPRTEAAETTPMWQALKLLFCATGLQVSYLTWGVLQERVMTRSYGATATSPGERFTDSQFLVLMNRVLALIVAGLSCVLCKQPRHGAPMYRYSFASLSNVLSSWCQYEALKFVSFPTQVLAKASKVIPVMLMGKLVSRRSYEHWEYLTATLISIGVSMFLLSSGPEPRSSPATTLSGLILLAGYIAFDSFTSNWQDALFAYKMSSVQMMFGVNFFSCLFTVGSLLEQGALLEGTRFMGRHSEFAAHALLLSICSACGQLFIFYTIGQFGAAVFTIIMTLRQAFAILLSCLLYGHTVTVVGGLGVAVVFAALLLRVYARGRLKQRGKKAVPVESPVQKV
Km [1]: 0.7 µM | activity to specifically transport substances other than PAPS [2]: substantially has no activity
